Measurements: publication PMC5842376

Target: ISCU(M108I) (human) (UniProt Q9H1K1)
Experiment: ITC

Kd: 2600 nM
Substance: human cysteine desulfurase complex (NIA)2, [NFS1]2:[ISD11]2:[Acp]2 (from UniProt Q9HD34 1-91; P0A6A8 1-78)
